# B1: Azoarcus group I ribozyme (parent)
# chain: GUGCCUUGCGCCGGGAAACCACGCAAGGGAUGGUGUCAAAUUCGGCGAAACCUAAGCGCCCGCCCGGGCGUAUGGCAACGCCGAGCCAAGCUUCGGCGCCUGCGCCGAUGAAGGUGUAGAGACUAGACGGCACCCACCUAAGGCAAACGCUAUGGUGAAGGCAUAGUCCAGGGAGUGGCGAAAGUCACACAAACCGG
# Variants of: B1
# Test: reverse-splicing fitness (ratio to wild type); higher = more active; in vitro selection; Mg2+ level not given
# Summary of the method: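 An in vitro group I ribozyme library with randomized positions was T7-transcribed and gel-purified. In triplicate, 10 pmol RNA in EPPS pH 7.5 was reacted with 50 pmoles of a 30-nt RNA substrate for 1 h at 37 °C across several added MgCl2 levels (1–48 mM), then stopped with EDTA. Products were reverse transcribed from a substrate-complementary primer, PCR-amplified and sequenced (HiSeq 4000). Fitness is a variant's read proportion after selection over that before, normalised to wild type.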
row,Variant,reverse-splicing fitness
1,A111U A120G C150G C169G U176A,0.00621
2,A111U A120G C150G C169G U176C,0.00471
3,A111U A120G C150G C169G U176G,0.00442
4,A111U A120G C150G C169U,0.019
5,A111U A120G C150G C169U U176A,0.0137
6,A111U A120G C150G C169U U176C,0.0149
7,A111U A120G C150G C169U U176G,0.00577
8,A111U A120G C150G U176A,0.00753
9,A111U A120G C150G U176C,0.0112
10,A111U A120G C150G U176G,0.00275
11,A111U A120G C150U,0.0899
12,A111U A120G C150U C169A,0.0593
13,A111U A120G C150U C169A U176A,0.0189
14,A111U A120G C150U C169A U176C,0.0245
15,A111U A120G C150U C169A U176G,0.00517
16,A111U A120G C150U C169G,0.112
17,A111U A120G C150U C169G U176A,0.0314
18,A111U A120G C150U C169G U176C,0.0391
19,A111U A120G C150U C169G U176G,0.00503
20,A111U A120G C150U C169U,0.0857
21,A111U A120G C150U C169U U176A,0.0401

row,Variant,reverse-splicing fitness
1,A111U A120G C150U C169U U176C,0.0386
2,A111U A120G C150U C169U U176G,0.00701
3,A111U A120G C150U U176A,0.0266
4,A111U A120G C150U U176C,0.0413
5,A111U A120G C150U U176G,0.00616
6,A111U A120G C169A,0.116
7,A111U A120G C169A U176A,0.0264
8,A111U A120G C169A U176C,0.0386
9,A111U A120G C169A U176G,0.00454
10,A111U A120G C169G,0.218
11,A111U A120G C169G U176A,0.0412
12,A111U A120G C169G U176C,0.0539
13,A111U A120G C169G U176G,0.00419
14,A111U A120G C169U,0.155
15,A111U A120G C169U U176A,0.0505
16,A111U A120G C169U U176C,0.055
17,A111U A120G C169U U176G,0.00807
18,A111U A120G U176A,0.0388
19,A111U A120G U176C,0.0497
20,A111U A120G U176G,0.00656
21,A111U A120U,0.634

row,Variant,reverse-splicing fitness
1,A111U A120U A145C,0.518
2,A111U A120U A145C C150A,0.0261
3,A111U A120U A145C C150A C169A,0.00256
4,A111U A120U A145C C150A C169A U176A,0.00272
5,A111U A120U A145C C150A C169A U176C,0.00287
6,A111U A120U A145C C150A C169A U176G,0.00243
7,A111U A120U A145C C150A C169G,0.00394
8,A111U A120U A145C C150A C169G U176A,0.00297
9,A111U A120U A145C C150A C169G U176C,0.00308
10,A111U A120U A145C C150A C169G U176G,0.00184
11,A111U A120U A145C C150A C169U,0.00469
12,A111U A120U A145C C150A C169U U176A,0.00285
13,A111U A120U A145C C150A C169U U176C,0.00285
14,A111U A120U A145C C150A C169U U176G,0.00241
15,A111U A120U A145C C150A U176A,0.012
16,A111U A120U A145C C150A U176C,0.00836
17,A111U A120U A145C C150A U176G,0.00552
18,A111U A120U A145C C150G,0.0741
19,A111U A120U A145C C150G C169A,0.0033
20,A111U A120U A145C C150G C169A U176A,0.00234
21,A111U A120U A145C C150G C169A U176C,0.00276

row,Variant,reverse-splicing fitness
1,A111U A120U A145C C150G C169A U176G,0.00254
2,A111U A120U A145C C150G C169G,0.00697
3,A111U A120U A145C C150G C169G U176A,0.00251
4,A111U A120U A145C C150G C169G U176C,0.00254
5,A111U A120U A145C C150G C169G U176G,0.00228
6,A111U A120U A145C C150G C169U,0.00895
7,A111U A120U A145C C150G C169U U176A,0.00301
8,A111U A120U A145C C150G C169U U176C,0.0029
9,A111U A120U A145C C150G C169U U176G,0.00228
10,A111U A120U A145C C150G U176A,0.0107
11,A111U A120U A145C C150G U176C,0.0148
12,A111U A120U A145C C150G U176G,0.00337
13,A111U A120U A145C C150U,0.15
14,A111U A120U A145C C150U C169A,0.00229
15,A111U A120U A145C C150U C169A U176A,0.00251
16,A111U A120U A145C C150U C169A U176C,0.00198
17,A111U A120U A145C C150U C169A U176G,0.00275
18,A111U A120U A145C C150U C169G,0.0115
19,A111U A120U A145C C150U C169G U176A,0.0032
20,A111U A120U A145C C150U C169G U176C,0.00276
21,A111U A120U A145C C150U C169G U176G,0.00222

# From the RNAGym collection of RNA variant scans (doi:10.1093/molbev/msab373)
